Series [1] deals with intestinal cell differentiation. Briefly: Histology and immunohistochemistry of mouse intestine tissue. Format: in vivo. As to conditions: 5 mg/kg, one day after final dosing (FIGS. 15C and 24B). The text has this:
(§1) (A) Total body weight change (mean+/−standard deviation) vs. time. […] Arrows mark the days of dosing. (B) Immunohistochemical analyses of small intestines. […] In each row as indicated, staining is shown for haemotoxylin and eosin (H & E), Alcian Blue for mucin and to mark secretory goblet cells, lysozyme to mark Paneth cells, Ki-67 for proliferation and Hes1 as a Notch downstream target. See FIGS. 19 and 20 for analyses of the large intestine at day 7 and of the small intestine at day 2, respectively. Bar=40 μm. (C) Comparison of Notch1- versus Notch2-specific inhibition on small intestinal cell differentiation. Small intestines from the study described in (A) were prepared for Alcian Blue and Ki-67 one day after the final dosing with α-gD, α-NRR1 or α-NRR2, as indicated. Bar=50 μm.
Formalin-fixed and paraffin-embedded mouse small intestine tissues were sectioned at 3 micron thickness. Histochemical identification of intestinal cell types was performed with Alcian blue as recommended by the manufacturer (PolyScientific). For anti-Ki67 staining, sections were pretreated with Target Retrieval Solution (S1700, DAKO), and incubated with rabbit anti-Ki67 (1:200, clone SP6, Neomarkers). Secondary goat anti-rabbit at 7.5 μg/ml (Vector labs) was detected with the Vectastain ABC Elite Kit (Vector labs). Ki67 stained sections were counterstained with Mayer's haemotoxylin. For anti-lysozyme staining, sections were processed on the Discovery XT platform (Ventana Medical Systems, Inc.) using CC1m epitope recovery conditions, OmniMap-rabbit detection and Ventana haemotoxylin II/with bluing counterstain. For HES-1 staining, anti-rat HES-1 (clone NM1, MBL, International) was followed by TSA-HRP.
The effect of inhibiting both Notch1 and Notch2 on intestinal cell fate determination was also investigated. […] The intestines were harvested and stained with H&E to reveal the crypt morphology. […] Further experimentation confirmed this observation.

Series [2] deals with SK23 melanoma cells. Briefly: Cell Titer Glo viability of melanoma cell line SK23. It is filed as cell-based, human. As to conditions: six days, antibodies 20 mg/ml, DAPT 5 μM, ± Jagged-1. On the procedure:
Human melanoma cell lines SK23 and LOX-IMVI were plated in medium containing 2% FBS at low density (4000 cells/well for SK23, 2500 cells/well for LOX-IMVI) in 96 well plates that were coated without (−jag-1) or with Jagged-1 ligand (+jag-1) (R&D Systems, Minneapolis, Minn.). […] An equal volume of DMSO served as the vehicle control, whereas an equal concentration of anti-gD HuB6 phage antibody served as the isotype control antibody. Cell Titer Glo assays (Promega, Madison, Wis.) were performed six days after plating. […] In FIGS. 25A and 25B, cell viability (y-axis) is expressed relative to the values from the DMSO vehicle, −jag-1 control wells.

A short description of series [3]: Total body weight change in antibody-dosed mice. Format: in vivo, mouse.
From the text: as §1
(B) Immunohistochemical analyses of small intestines from mice treated as in (A), using Alcian Blue for mucin to mark secretory goblet cells.

Series [4] concerns other three non-targeted receptors. Briefly: Binding to non-targeted Notch receptors (SPR, ELISA, FACS). Also noted: species or system human, mouse. The settings on record: ELISA and FACS. On the procedure: Binding affinities of anti-Notch2 NRR antibodies were measured by Surface Plasmon Resonance (SRP) using a BIAcore™-3000 instrument. Anti-Notch2 NRR human IgGs were captured by mouse anti-human IgG coated on the CM5 sensor chip to achieve approximately 200 response units (RU). For kinetics measurements, two-fold serial dilutions of human and mouse Notch2 NRR (3.9 nM to 500 nM) were injected in PBT buffer (PBS with 0.05% Tween 20) at 25° C. with a flow rate of 30 μl/min. Association rates (kon) and dissociation rates (koff) were calculated using a simple one-to-one Langmuir binding model (BIAcore Evaluation Software version 3.2). The equilibrium dissociation constant (KD) was calculated as the ratio koff/kon.
Anti-Flag antibody was used to capture Flag-Tagged NRR protein from all four Notch receptors in a black walled, high binding plate (Greiner). NRR antibody and E25 control antibodies were bound to the NRR proteins and washed away with PBS. An Alkaline Phosphate conjugated anti-human (H+L) secondary antibody (Jackson ImmunoResearch) was used to detect bound anti-NRR and E25. Unbound secondary was washed away and AP was detected with PNPP substrate (Pierce). […]
(ELISA stands for enzyme-linked immunosorbent assay.)

Series [5] relates to DB DLBCL cell line. Briefly: Growth of DB diffuse large B-cell lymphoma cell line in vitro. It is filed as cell-based. On the procedure:
Diffuse large B-cell lymphoma (DLBCL) is the most common type of non-Hodgkin's lymphoma. […] (See Lee et al., Cancer Sci. 100:920-926, 2009.) However, how DLBCL cells would respond to Notch2 inhibition was not known. Therefore, we investigated the effect of anti-NRR2 on five DLBCL cell lines. The DLBCL lines listed on the right of FIG. 26 were grown in replicates for three days in wells of a 384-well plate. The cell cultures included the indicated concentrations of anti-NRR2 (referred to as “anti-Notch2” in FIGS. 26 and 27), which corresponded to three-fold serial dilutions starting at 10 μg/ml. Growth was assessed using Cell Titer Glo assays (Promega), plotted as the percentage of cell viability relative to treatment with an isotype control antibody. The data points in FIG. 26 represent average values obtained from individual wells for each cell line at the indicated antibody concentrations. […] The DB line was grown in wells of a 12-well plate, and the cultures were treated with DMSO, the gamma-secretase inhibitor DAPT, anti-gD isotype control antibody or anti-NRR2 at the indicated concentrations. Growth was assessed by counting viable cells (Vi-CELL, Beckman Coulter, Fullerton, Calif.) at days 2, 3 and 5 after inoculating and treating the cultures. Values represent the mean of measurements from three independent cultures, plus/minus the standard deviation.

The values that follow come from patent US8404239B2, “Anti-Notch2 NRR antibodies” (Genentech, Inc., priority 2008, dated 2013).

B1: anti-NRR2: affinity matured form of Antibody D, phage library-derived human anti-Notch2 NRR monoclonal antibody (antibody, V domains shown)
VH: EVQLVESGGGLVQPGGSLRLSCAASGYTFSSYGMSWVRQAPGKGLEWVSYIYPYSGATYYADSVKGRFTISADTSKNTAYLQMNSLRAEDTAVYYCARHSGYYRISSAMDVWGQGTLVTVSA
VL: DIQMTQSPSSLSASVGDRVTITCRASQNIKRFLAWYQQKPGKAPKLLIYGASTRESGVPSRFSGSGSGTDFTLTISSLQPEDFATYYCQQYYRSPHTFGQGTKVEIKR
As for B1, the “effects on small intestine (goblet cells, Alcian Blue)” value in series [1] is given as “did not cause any detectable effects”. Further, in series [2], the cell viability entry is reported as “decrease in viability”. Moreover, in series [3] (first experiment (FIG. 15A)), the “total body weight change” value is recorded as “weight gains”. Moreover, in series [3] (second experiment, 5 mg/kg (FIG. 24A)), the effect on weight result is listed as “little or no effect”. In addition, in series [4], the “binding to human or mouse sequences of the other three non-targeted receptors” value is “no binding”. In addition, the “growth over time (viable cell counts)” value in series [5] (days 2, 3 and 5) is given as “suppresses the growth”. The “growth (cell viability relative to isotype control)” value in series [5] (three days, three-fold dilutions from 10 μg/ml) was “strongly inhibited”.
